Laboratory results reported in US20110312518A1.

What was measured:
[1] = system: T1, Src peptide substrate KVEKIGEGTYGVVYK
T1 sequence: KVEKIGEGTYGVVYK

[2] = molecular target: phospho-CrkL recombinant protein; experiment: sandwich immunoassay, microfluidic chip, 1 hour: Y244 capture, phospho-CrkL analyte, 4G10-coated beads counted
[3] = molecular target: phospho-CrkL recombinant protein; experiment: sandwich immunoassay, 96-well plate, 12 hours: Y244 capture, phospho-CrkL analyte, 4G10 and FITC anti-mouse detection

Current limit of detection [2] [pM] | Current limit of detection [3] [nM] | Substance | detection limit (kinase activity, beads bound/counted) [1]
 |  | Src kinase | resulting in a detection limit of 100 fM
100 | 1 | rabbit anti-CrkL monoclonal antibodies (clone Y244, Novus Biologicals #NB110-56895) (antibody) | 
